# Laboratory results from patent US20210024639A1 (AGOMAB THERAPEUTICS, published 2021).
# Key:
# [1] = target: T1, mouse MET extracellular domain (ECD) (mouse, UniProt P16056 25-931); experiment: ELISA, periplasmic Fab on MET ECD
# T1 construct: range 1-931; recombinant ECD; also called mMET; mouse MET ECD
# Experimental: (§1) Fab-expressing phages from the libraries described above were produced according to standard phage display protocols. For selection, phages were first adsorbed to immobilized recombinant human MET ECD, washed, and then eluted using trypsin. After two cycles of selection with human MET ECD, two other cycles were performed in the same fashion using mouse MET ECD. In parallel, we also selected phages alternating a human MET ECD cycle with a mouse MET ECD cycle, for a total of four cycles. Phages selected by the two approaches were pooled together and then used to infect TG1 E. coli. Individual colonies were isolated and secretion of Fabs was induced using IPTG (Fermentas). The Fab-containing periplasmic fraction of bacteria was collected and tested for its ability to bind human and mouse MET ECD by Surface Plasmon Resonance (SPR). Human or mouse MET ECD was immobilized on a CM-5 chip using amine coupling in sodium acetate buffer (GE Healthcare). The Fab-containing periplasmic extracts were loaded into a BIACORE 3000 apparatus (GE Healthcare) with a flow rate of 30 μl/min. The Fab off-rates (koff) were measured over a two minute period. Binding of Fabs to human and mouse MET was further characterized by ELISA using MET ECD in solid phase and periplasmic crude extract in solution.
# (§2) TABLE 7 Fabs binding to both human MET (hMET) and mouse MET (mMET). Fabs are grouped in families based on their VH CDR3 sequence. Binding of Fabs to human and mouse MET ECD was determined by Surface Plasmon Resonance (SPR) and by ELISA. SPR values represent the koff (s⁻¹). ELISA values represent the Optical Density (OD) at 450 nm (AU, arbitrary units). Both SPR and ELISA were performed using crude periplasmic extracts. Fab concentration in the extract was not determined. Values are the mean of three independent measurements.
# [2] = target: T2, human MET extracellular domain (ECD) (human, UniProt P08581 25-932); experiment: ELISA, periplasmic Fab on MET ECD
# T2 construct: range 1-932; recombinant ECD; also called hMET; human MET ECD
# T2 sequence (P08581 25-932 limits assumed, form in doubt): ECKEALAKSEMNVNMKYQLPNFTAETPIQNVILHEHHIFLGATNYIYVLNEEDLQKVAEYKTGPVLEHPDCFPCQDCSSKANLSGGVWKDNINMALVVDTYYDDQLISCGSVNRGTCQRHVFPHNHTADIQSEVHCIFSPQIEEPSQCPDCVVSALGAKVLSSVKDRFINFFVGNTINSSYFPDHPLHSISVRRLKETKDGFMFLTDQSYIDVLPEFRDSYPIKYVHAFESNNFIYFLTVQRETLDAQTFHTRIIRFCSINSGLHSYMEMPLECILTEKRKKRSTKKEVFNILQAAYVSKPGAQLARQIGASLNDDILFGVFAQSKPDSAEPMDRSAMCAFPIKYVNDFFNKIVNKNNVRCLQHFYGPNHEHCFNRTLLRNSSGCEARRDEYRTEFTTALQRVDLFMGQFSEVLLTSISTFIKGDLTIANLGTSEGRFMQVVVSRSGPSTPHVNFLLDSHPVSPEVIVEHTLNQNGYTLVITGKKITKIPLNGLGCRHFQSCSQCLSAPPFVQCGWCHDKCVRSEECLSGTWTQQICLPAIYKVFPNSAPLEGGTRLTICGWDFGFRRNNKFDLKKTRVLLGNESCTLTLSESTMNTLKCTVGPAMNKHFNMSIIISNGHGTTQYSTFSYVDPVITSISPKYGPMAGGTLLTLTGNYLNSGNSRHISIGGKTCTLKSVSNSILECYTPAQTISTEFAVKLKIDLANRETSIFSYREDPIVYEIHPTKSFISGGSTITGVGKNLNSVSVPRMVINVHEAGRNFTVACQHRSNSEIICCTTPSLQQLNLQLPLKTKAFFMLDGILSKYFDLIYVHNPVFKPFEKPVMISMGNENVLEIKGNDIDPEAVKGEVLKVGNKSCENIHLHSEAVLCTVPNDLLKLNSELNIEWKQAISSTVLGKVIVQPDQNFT
# Experimental: as §1, §2
# [3] = target: T3, native mouse MET on living mouse cells (mouse, UniProt P16056 25-1379); experiment: flow cytometry, MLP29 cells
# T3 construct: whole, on cells; also called Mouse cells (MLP29)
# Experimental: (§3) We also analysed whether chimeric anti-MET antibodies bound to native human and mouse MET in living cells. […] Antibody binding to cells was analysed by flow cytometry using phycoerythrin-conjugated anti-human IgG1 antibodies (eBioscience) and a CyAn ADP analyser (Beckman Coulter). As a positive control for human MET binding, we used a commercial mouse anti-human MET antibody (R&D Systems) and phycoerythrin-conjugated anti-mouse IgG1 antibodies (eBioscience). As a positive control for mouse MET binding we used a commercial goat anti-mouse MET antibody (R&D Systems) and phycoerythrin-conjugated anti-goat IgG1 antibodies (eBioscience). […] Consistent with the data obtained in ELISA, maximal binding (EMAX) varied depending on antibody, but was similar in human and mouse cells.
# [4] = target: T4, mouse MET-Fc chimeric protein (R&D Systems) (mouse, UniProt P16056 25-929, limits assumed); experiment: competition ELISA, mMET-Fc in solid phase, competitor 0.3 nM biotinylated mHGF
# T4 construct: bought (R&D Systems); also called mMET; not shown: Fc
# Experimental: (§4) To investigate along this line, we tested the competition between mAbs and HGF by ELISA. Recombinant human and mouse HGF (R&D Systems) were biotinylated at the N-terminus using NHS-LC-biotin (Thermo Scientific). MET-Fc protein, either human or mouse (R&D Systems), was immobilized in solid phase and then exposed to 0.3 nM biotinylated HGF, either human or mouse, in the presence of increasing concentrations of antibodies (0-120 nM).
# (§5) A MET-Fc chimeric protein (either human or mouse) was immobilized in solid phase and exposed to a fixed concentration of biotinylated HGF (either human or mouse), in the presence of increasing concentrations of antibodies. […] Antibody-HGF competition is expressed as IC₅₀ (the concentration that achieves 50% competition) and IMAX (the maximum % competition reached at saturation).
# [5] = target: T5, native human MET on living human cells (human, UniProt P08581 25-1390); experiment: cell-based or functional assay
# T5 sequence (P08581 25-1390): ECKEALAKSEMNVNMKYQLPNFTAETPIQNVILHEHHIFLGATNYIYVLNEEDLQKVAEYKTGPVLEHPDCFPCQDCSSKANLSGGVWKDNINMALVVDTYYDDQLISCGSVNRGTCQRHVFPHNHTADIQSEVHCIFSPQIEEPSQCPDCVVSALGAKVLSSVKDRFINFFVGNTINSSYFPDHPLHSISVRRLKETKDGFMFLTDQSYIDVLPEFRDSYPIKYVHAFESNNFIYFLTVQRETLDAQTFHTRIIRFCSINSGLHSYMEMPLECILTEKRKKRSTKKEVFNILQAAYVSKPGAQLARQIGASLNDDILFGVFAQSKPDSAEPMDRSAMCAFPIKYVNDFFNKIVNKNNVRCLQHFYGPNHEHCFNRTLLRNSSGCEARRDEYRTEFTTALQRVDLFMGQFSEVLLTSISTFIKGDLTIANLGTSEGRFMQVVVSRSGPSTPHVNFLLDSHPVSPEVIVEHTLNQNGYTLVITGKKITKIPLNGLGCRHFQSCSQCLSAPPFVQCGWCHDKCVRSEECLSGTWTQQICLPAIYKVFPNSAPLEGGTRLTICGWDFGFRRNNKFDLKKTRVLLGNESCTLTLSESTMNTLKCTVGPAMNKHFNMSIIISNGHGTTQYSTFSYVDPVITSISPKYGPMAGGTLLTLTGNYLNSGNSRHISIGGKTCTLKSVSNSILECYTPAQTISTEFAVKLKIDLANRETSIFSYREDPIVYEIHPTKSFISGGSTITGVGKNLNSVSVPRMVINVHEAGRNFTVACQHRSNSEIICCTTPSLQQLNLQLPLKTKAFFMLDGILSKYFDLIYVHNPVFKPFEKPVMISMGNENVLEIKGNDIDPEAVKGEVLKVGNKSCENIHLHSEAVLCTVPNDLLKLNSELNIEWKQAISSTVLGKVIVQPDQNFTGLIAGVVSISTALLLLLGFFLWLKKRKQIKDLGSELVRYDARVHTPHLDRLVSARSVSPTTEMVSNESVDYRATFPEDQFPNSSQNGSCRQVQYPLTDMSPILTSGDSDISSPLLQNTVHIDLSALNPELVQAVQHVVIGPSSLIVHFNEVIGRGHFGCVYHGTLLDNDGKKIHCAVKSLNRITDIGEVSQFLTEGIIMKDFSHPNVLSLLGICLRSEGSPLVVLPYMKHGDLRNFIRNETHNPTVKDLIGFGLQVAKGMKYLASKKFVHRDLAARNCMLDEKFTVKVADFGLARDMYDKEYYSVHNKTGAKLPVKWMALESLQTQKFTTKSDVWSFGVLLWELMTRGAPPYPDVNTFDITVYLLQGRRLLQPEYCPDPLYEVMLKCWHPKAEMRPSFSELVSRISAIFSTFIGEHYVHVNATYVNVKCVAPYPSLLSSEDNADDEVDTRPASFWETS
# [6] = target: T3, native mouse MET on living mouse cells; experiment: cell-based or functional assay
# [7] = target: T5, native human MET on living human cells; experiment: cell-based or functional assay; remark: listed apart in the source
# [8] = target: T3, native mouse MET on living mouse cells; experiment: cell-based or functional assay; remark: listed apart in the source
# [9] = target: T6, human MET-Fc chimeric protein (R&D Systems) (human, UniProt P08581 25-932); experiment: competition ELISA, hMET-Fc in solid phase, competitor 0.3 nM biotinylated hHGF
# T6 construct: extracellular domain; bought (R&D Systems); also called hMET; not shown: Fc portion of human IgG1
# T6 sequence (P08581 25-932, change not shown): as the sequence (P08581 25-932 limits assumed, form in doubt) above
# Experimental: as §4, §5
# [10] = target: T5, native human MET on living human cells; experiment: flow cytometry, A549 cells
# Experimental: as §3
binder,measurement,setting,value
"Fab 76H10 (Fab, V domains shown, llama Fab (VH-CH1, lambda VL-CL) with MYC flag, crude periplasmic extract) VH: QLQLVESGGGLVQPGGSLRVSCTASGFTFNTYYMTWVRQAPGKGLEWVSDINSGGGTYYADSVKGRFTISRDNAKNTLYLQMNSLKPEDTALYYCVRVRIWPVGYDYWGQGTQVTVSS VL: QAVVTQEPSLSVSPGGTVTLTCGLSSGSVTTSNYPGWFQQTPGQAPRTLIYNTNNRHSGVPSRFSGSISGNKAALTITGAQPEDEADYYCSLYTGSYTTVFGGGTHLTVL",ELISA OD450,[1],3.7 AU
same,ELISA OD450,[2],3.7 AU
"Fab 74C8 (Fab, V domains shown, llama Fab (VH-CH1, lambda VL-CL) with MYC flag, crude periplasmic extract) VH: EVQLVESGGGLVQPGGSLRLSCAASGFTFRNYHMSWVRQVPGKGFEWISDINSAGGSTYYADSVKGRFTISRDNAKNTLYLEMNSLKPEDTALYYCARVNVWGVNYWGKGTLVSVSS VL: QTVVTQEPSLSVSPGGTVTLTCGLSSGSVTTSNYPGWFQQTPGQAPRTLIYNTNSRHSGVPSRFSGSISGNKAALTITGAQPEDEADYYCSLYPGSYTNVFGGGTHLTVL",ELISA OD450,[1],2.92 AU
same,ELISA OD450,[2],2.98 AU
"Fab 71A3 (Fab, V domains shown, llama Fab (VH-CH1, lambda VL-CL) with MYC flag, crude periplasmic extract) VH: EVQLVESGGGLVQPGGSLRLSCAASGFSFKDYDITWVRQAPGKGLEWVSTITSRSGSTSYVDSVKGRFTISGDNAKNTLYLQMNSLKPEDTAVYYCAKVYATTWDVGPLGYGMDYWGKGTLVTVSS VL: SYELTQPSALSVTLGQTAKITCQGGSLGSSYAHWYQQKPGQAPVLVIYDDDSRPSGIPERFSGSSSGGTATLTISGAQAEDEGDYYCQSADSSGNAAVFGGGTHLTVL",ELISA OD450,[1],0.524 AU
same,ELISA OD450,[2],0.581 AU
"Fab 71G3 (Fab, V domains shown, llama Fab (VH-CH1, lambda VL-CL) with MYC flag, crude periplasmic extract) VH: QVQLVESGGGLVQPGGSLRVSCAASGFTFSTYYMSWVRQAPGKGLEWVSDIRTDGGTYYADSVKGRFTMSRDNAKNTLYLQMNSLKPEDTALYYCARTRIFPSGYDYWGQGTQVTVSS VL: QAVVTQEPSLSVSPGGTVTLTCGLSSGSVTTSNYPGWFQQTPGQAPRTLIYNTNSRHSGVPSRFSGSISGNKAALTIMGAQPEDEADYYCSLYPGSTTVFGGGTHLTVL",ELISA OD450,[1],3.44 AU
same,ELISA OD450,[2],3.46 AU
"Fab 71G2 (Fab, V domains shown, llama Fab (VH-CH1, lambda VL-CL) with MYC flag, crude periplasmic extract) VH: EVQLQESGGGLVQPGGSLRLSCAASGFTFSIYDMSWVRQAPGKGLEWVSTINSDGSSTSYVDSVKGRFTISRDNAKNTLYLQMNSLKPEDTAVYYCAKVYGSTWDVGPMGYGMDYWGKGTLVTVSS VL: SSALTQPSALSVSLGQTARITCQGGSLGSSYAHWYQQKPGQAPVLVIYGDDSRPSGIPERFSGSSSGGTATLTISGAQAEDEDDYYCQSTDSSGNTVFGGGTRLTVL",ELISA OD450,[1],0.543 AU
same,ELISA OD450,[2],0.561 AU
"Fab 71D6 (Fab, V domains shown, llama Fab (VH-CH1, lambda VL-CL) with MYC flag, crude periplasmic extract) VH: ELQLVESGGGLVQPGGSLRLSCAASGFTFSSYGMSWVRQAPGKGLEWVSAINSYGGSTSYADSVKGRFTISRDNAKNTLYLQMNSLKPEDTAVYYCAKEVRADLSRYNDYESYDYWGQGTQVTVSS VL: QPVLNQPSALSVTLGQTAKITCQGGSLGARYAHWYQQKPGQAPVLVIYDDDSRPSGIPERFSGSSSGGTATLTISGAQAEDEGDYYCQSADSSGSVFGGGTHLTVL",ELISA OD450,[1],3.07 AU
same,ELISA OD450,[2],3.26 AU
"Fab 71C3 (Fab, V domains shown, llama Fab (VH-CH1, lambda VL-CL) with MYC flag, crude periplasmic extract) VH: QLQLVESGGGLVQPGGSLRLSCAASGFTFSSHAMSWVRQAPGKGLEWVSAINSGGGSTSYADSVKGRFTISRDNAKNTLYLQMNSLKPEDTAVYYCAKELRFDLARYTDYEAWDYWGQGTQVTVSS VL: SYELTQPSALSVTLGQTAKITCQGGSLGSSYAHWYQQKPGQAPVLVIYDDDSRPSGIPERFSGSSSGGTATLTISGAQAEDEGDYYCQSADSSGNAAVFGGGTHLTVL",ELISA OD450,[1],1.64 AU
same,ELISA OD450,[2],1.65 AU
"Fab 71D4 (Fab, V domains shown, llama Fab (VH-CH1, lambda VL-CL) with MYC flag, crude periplasmic extract) VH: ELQLVESGGGLVQPGGSLRLSCAASGFTFSGYGMSWVRQAPGKGLEWVSDINSGGGSTSYADSVKGRFTISRDNAKNTLYLQMNSLKPEDTAVYYCAKDMRLYLARYNDYEAWDYWGQGTQVTVSS VL: SSALTQPSALSVTLGQTAKITCQGGSLGSSYAHWYQQKPGQAPVLVIYDDDSRPSGIPERFSGSSSGGTATLTISGAQAEDEGDYYCQSADSSGNAAVFGGGTHLTVL",ELISA OD450,[1],0.307 AU
same,ELISA OD450,[2],0.311 AU
"chimeric llama-human IgG1 mAb 72F8 (antibody, V domains shown) VH: ELQLVESGGGLVQPGGSLRLSCAASGFTFSNYVMSWVRQAPGKGLEWVSDTNSGGSTSYADSVKGRFTISRDNAKNTLYLQMNSLKPEDTALYYCARSFFYGMNYWGKGTQVTVSS VL: QSALTQPPSLSASPGSSVRLTCTLSSGNNIGSYDISWYQQKAGSPPRYLLNYYTDSRKHQDSGVPSRFSGSKDASANAGLLLISGLQPEDEADYYCSAYKSGSYRWVFGGGTHVTVL",EMAX (% relative to control),[3],172%
same,IMAX (maximum % competition),[4],72.8%
same,"cell scattering score, HPAF-II, 0.001 nM",[5],0 score 0-4
same,"cell scattering score, HPAF-II, 0.004 nM",[5],0 score 0-4
same,"cell scattering score, HPAF-II, 0.012 nM",[5],0 score 0-4
same,"cell scattering score, HPAF-II, 0.037 nM",[5],0 score 0-4
same,"cell scattering score, HPAF-II, 0.111 nM",[5],0 score 0-4
same,"cell scattering score, HPAF-II, 0.333 nM",[5],0 score 0-4
same,"cell scattering score, HPAF-II, 1.000 nM",[5],1 score 0-4
same,"cell scattering score, HPAF-II, 3.000 nM",[5],2 score 0-4
same,"cell scattering score, HPAF-II, 9.000 nM",[5],3 score 0-4
same,"cell scattering score, MLP29, 0.001 nM",[6],0 score 0-4
same,"cell scattering score, MLP29, 0.004 nM",[6],0 score 0-4
same,"cell scattering score, MLP29, 0.012 nM",[6],0 score 0-4
same,"cell scattering score, MLP29, 0.037 nM",[6],0 score 0-4
same,"cell scattering score, MLP29, 0.111 nM",[6],0 score 0-4
same,"cell scattering score, MLP29, 0.333 nM",[6],0 score 0-4
same,"cell scattering score, MLP29, 1.000 nM",[6],1 score 0-4
same,"cell scattering score, MLP29, 3.000 nM",[6],2 score 0-4
same,"cell scattering score, MLP29, 9.000 nM",[6],3 score 0-4
same,"protection from staurosporine, viability EC50, MCF10A",[7],> 32 nM
same,"protection from staurosporine, viability EMAX, MCF10A",[7],35.8%
same,"protection from staurosporine, viability EC50, MLP29",[8],> 32 nM
same,"protection from staurosporine, viability EMAX, MLP29",[8],43.8%
same,IMAX (maximum % competition),[9],77.3%
same,EMAX (% relative to control),[10],156%
"Fab 72F8 (Fab, V domains shown, llama Fab (VH-CH1, lambda VL-CL) with MYC flag, crude periplasmic extract) VH: ELQLVESGGGLVQPGGSLRLSCAASGFTFSNYVMSWVRQAPGKGLEWVSDTNSGGSTSYADSVKGRFTISRDNAKNTLYLQMNSLKPEDTALYYCARSFFYGMNYWGKGTQVTVSS VL: QSALTQPPSLSASPGSSVRLTCTLSSGNNIGSYDISWYQQKAGSPPRYLLNYYTDSRKHQDSGVPSRFSGSKDASANAGLLLISGLQPEDEADYYCSAYKSGSYRWVFGGGTHVTVL",ELISA OD450,[1],3.08 AU
same,ELISA OD450,[2],3.38 AU
"Fab 76G7 (Fab, V domains shown, llama Fab (VH-CH1, lambda VL-CL) with MYC flag, crude periplasmic extract) VH: QVQLVESGGNLVQPGGSLRLSCAASGFTFSNYYMSWVRQAPGKGLEWVSDIYSDGSTTWYSDSVKGRFTISRDNAKNTLSLQMNSLKSEDTAVYYCARVKIYPGGYDAWGQGTQVTVSS VL: QAGLTQPPSVSGSPGKTVTISCAGNSSDVGYGNYVSWYQQFPGMAPKLLIYLVNKRASGITDRFSGSKSGNTASLTISGLQSEDEADYYCASYTGSNNIVFGGGTHLTVL",ELISA OD450,[1],3.08 AU
same,ELISA OD450,[2],3.2 AU
